Assay results taken from the Human Domainome abundance scans (Beltran et al. 2025).

B1: Tumor protein p73, residues 487 to 549; numbered along this chain, O15350 (parent)
chain: YHADPSLVSFLTGLGCPNCIEYFTSQGLQSIYHLQNLTIEDLGALKIPEQYRMTIWRGLQDLK

Variants of: B1
Assay: abundance fitness (aPCA) (normalised: wild type 0, dead -1); higher = more abundant; growth selection in yeast, the domain comes from the species named
Conditions: Homo sapiens

Abundance fitness: each site, then its substitutions
S6: T -0.052 | V -0.027 | R 0.013 | W -0.212 | Y -0.197
Y22: I -0.108 | K -0.047 | M -0.026 | A -0.035 | W -0.261 | P -0.069 | L 0.009 | F 0.002 | T -0.04 | H 0.031 | G -0.173 | V -0.079 | N 0.002 | R -0.042 | E -0.107 | D -0.101
Q26: I -0.163 | F -0.18 | K 0.032 | A 0.079 | C -0.057 | D -0.2 | E 0.011 | G -0.034 | H 0.035
L7: V -0.049 | A -0.257 | G -0.936 | C -0.4 | T -0.157 | W -0.847 | H -0.969 | P -0.782 | K -0.984 | S -0.831 | M -0.023 | Q -1.01 | R -1.01 | E -0.512 | F -0.266
P17: T 0.028 | L 0.023 | V 0.007 | Q 0.106 | I -0.122 | E 0.047 | S 0.015 | N -0.154 | C -0.08 | A -0.081 | F 0.036 | M -0.007 | K 0.075 | Y 0.017 | W -0.14 | D -0.044 | H -0.031 | R -0.024
F23: A -0.971 | K -0.975 | H -0.81 | S -1.03 | G -0.995 | P -0.907 | E -1.05 | W -0.966 | D -1.18 | V -0.618 | L -0.182 | I -0.277 | Q -0.801 | R -1.14 | M -0.306 | Y -0.638 | C -0.315 | N -0.733 | T -0.978
I20: K -0.185 | V 0.009 | P -0.626 | N -0.282 | L 0.038 | R -0.111 | F -0.257 | A -0.061 | G -0.269 | E -0.057 | C -0.074 | H -0.069 | Q -0.082 | Y -0.1 | S -0.049 | M 0.003 | T -0.003 | W -0.36
C19: I -0.055 | M 0.048 | L 0.047 | F 0.031 | Y -0.233 | Q 0.028 | E -0.236 | N -0.511 | G -0.559 | D -0.699 | A -0.033 | P -0.97 | V 0.052 | H -0.399 | R -0.941 | W -0.454 | K -0.726
F10: W -0.296 | P -0.748 | N -0.804 | S -0.867 | Q -0.865 | D -1.06 | R -0.962 | A -0.535 | K -1.32 | C -0.588 | M -0.424 | T -0.823 | H -0.971 | Y -0.294 | E -1.02 | L -0.307
S9: W -0.411 | G 0.103 | N 0.086 | C -0.312 | Q 0.095 | I -0.347 | L -0.131 | D -0.114 | H -0.345 | Y -0.237 | F -0.194 | T -0.052 | K -0.017 | A -0.101 | M -0.207 | V -0.373 | E -0.019 | R 0.048 | P -0.134
C16: M 0.002 | E -0.8 | A -0.176 | R -0.407 | W -0.773 | I 0.146 | Q -0.504 | H -0.047 | T -0.163 | P -1.01 | Y -0.078 | K -0.322 | D -0.923 | S -0.389 | G -0.754 | F -0.144
S25: W -0.361 | G 0.029 | L -0.055 | I -0.195 | N 0.001 | F -0.197 | M -0.051 | K 0.046 | D -0.074 | Y -0.266 | Q 0.051 | P -0.179 | C 0.012 | E 0.129 | A 0.03
L11: F -0.031 | E -0.825 | C -0.13 | K -0.681 | T -0.858 | D -1.14 | Y -0.518 | M -0.115 | P -1.17 | S -1 | A -0.599 | H -0.806 | Q -0.053 | W -0.914 | N -1.12 | G -0.923 | I 0.039
E21: S -0.003 | P -0.053 | H -0.089 | R -0.009 | A -0.051 | I -0.138 | N -0.037 | T -0.054 | D 0.012 | Y -0.042 | K -0.048 | C -0.182 | W -0.087 | V -0.018 | G 0.034
T24: M 0.018 | C -0.097 | H -0.123 | L -0.037 | S -0.007 | D -0.198 | R -0.083 | W -0.187 | A -0.02 | V -0.077 | K -0.013 | E -0.108 | P -0.461 | N -0.224 | Y -0.206 | F -0.212 | Q -0.086
G15: W -0.854 | R -0.153 | F -0.508 | M -0.463 | A -0.124 | K -0.062 | L -0.616 | Q -0.124 | H -0.26 | T -0.549 | I -0.937 | Y -0.462 | V -0.606 | C -0.226 | S -0.17 | N -0.002
V8: N -0.052 | D 0.143 | I -0.053 | L 0.137 | H -0.024 | Q 0.037 | M 0.137 | R 0.132 | F -0.045 | P 0 | A 0.106 | W 0.083 | C 0.006 | K 0.235 | Y -0.016 | E 0.222 | T 0.117 | S 0.005 | G 0.228
L14: A -0.193 | S -0.407 | G -0.989 | F -0.493 | Y -0.315 | E -0.53 | R -0.353 | P -0.949 | K -0.174 | I 0.009 | T -0.307 | W -0.542 | V 0.024 | D -0.923 | H -0.231 | M -0.136 | Q -0.298
G13: W -0.315 | H 0.11 | S 0.034 | R 0.008 | N 0.216 | P -0.183 | T -0.012 | C -0.142 | V -0.223 | A -0.021 | F -0.172 | Q 0.024 | M -0.075 | L -0.124 | I -0.138 | E 0.047 | Y -0.185
T12: Q 0.031 | W -0.216 | L -0.146 | V -0.061 | N 0.117 | C -0.386 | F -0.092 | K 0.087 | G 0.1 | H 0.01 | E 0.114 | S -0.05 | P -1.1 | I -0.032 | M 0.021 | R 0.058 | D 0.236
N18: D 0.049 | Y -0.167 | G 0.061 | M -0.163 | C -0.125 | A 0.042 | H 0.04 | T -0.084 | E 0.033 | Q -0.03 | S -0.12 | L -0.139 | V -0.055 | I 0.005 | K -0.163 | P -0.288
